Measured values published in patent US20260022153A1 (AMIDEBIO, LLC, priority 2017, published 2026).

How the values were obtained:
[1] = target: IGF1 receptor (IGF1R) (Homo sapiens, UniProt P08069); experiment: Binding affinity of insulin analogs to the IGF1 receptor (IGF1R); conditions: in the absence of glucose
[2] = target: insulin receptor (Homo sapiens, UniProt P06213); conditions: cited from earlier work
[3] = after one year in acidic formulations; cited from earlier work

Substance	Kd [1] [nM]	fold lower affinity for the insulin receptor compared to wildtype insulin [2] [fold]	AsnA21 deamidation [3]
SEQ ID NO: 7: single chain insulin analog […] (FVGQHLCGSHLVEALYLVCGERGFFYTPKTYDGKGIVEQCCTSICSLYQLENYCG)	26.8		
SEQ ID NO: 5: single chain insulin analog […] (FVDQHLCGSHLVEALYLVCGERGFFYTPKTYDGKGIVEQCCTSICSLYQLENYCG)	30.4		
Wakayama mutation ValA3Leu: insulin with a valine to leucine substitution at position A3 of Insulin Chain A, a naturally occurring mutation		500	
insulin	5.66		20-30%
